What all share (conditions): protein: recombinant; tags: 6xHis-SUMO removed by TEV; single strand
The target of series [1] is TDP-43 RRM2 (UniProt Q13148 192-269). The series can be described thus: BLI; no Kd could be determined, protein up to 15 uM; BLI (Octet RED), 10 mM potassium phosphate pH 7.2, 150 mM KCl, 0.05% Tween, 25 C; RNA on streptavidin sensors, protein 1 nM-15 uM. Background: BLI is a label-free optical method that tracks binding on a fibre tip over time.
Series [2] concerns the target TDP-43 RRM1 (with 15-aa C-terminal linker) (UniProt Q13148 102-191). The series can be described thus: BLI; BLI (Octet RED), 10 mM potassium phosphate pH 7.2, 150 mM KCl, 0.05% Tween, 25 C; RNA on streptavidin sensors, protein 1 nM-15 uM.
Series [3] addresses TDP-43 RRM1-2 (UniProt Q13148 102-269). The description is as above.

Chain of TDP-43 RRM1 (with 15-aa C-terminal linker) (Q13148 102-191): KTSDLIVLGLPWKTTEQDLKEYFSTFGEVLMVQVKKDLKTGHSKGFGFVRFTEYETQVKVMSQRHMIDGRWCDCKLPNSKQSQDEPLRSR
Chain of TDP-43 RRM1-2 (Q13148 102-269): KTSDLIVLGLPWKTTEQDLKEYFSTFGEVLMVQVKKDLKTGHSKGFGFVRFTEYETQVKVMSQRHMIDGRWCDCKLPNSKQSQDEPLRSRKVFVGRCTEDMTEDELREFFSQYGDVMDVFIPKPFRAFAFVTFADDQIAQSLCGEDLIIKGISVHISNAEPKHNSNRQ
Chain of TDP-43 RRM2 (Q13148 192-269): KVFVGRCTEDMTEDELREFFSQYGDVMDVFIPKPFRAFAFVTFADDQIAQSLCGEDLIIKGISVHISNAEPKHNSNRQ

What is called Kd is a measure of binding affinity in units of concentration. Turning to AUUCAUUCACAC (ssRNA) [NegAUG12], the binding result in series [1] is “no binding”. The results for the Kd in series [2] and in series [3] were 2550 ± 480 nM and 2600 ± 600 nM, respectively.

Turning to GUGUGAAUGAAU (ssRNA) [AUG12], the Kd in series [2] stood at 480 ± 90 nM; in series [3], 3.9 nM.

The record behind these values is paper PMC6190850, “The RNA-Recognition Motifs of TAR DNA-Binding Protein 43 May Play a Role in the Aberrant Self-Assembly of the Protein”.
